Consider 4 molecules from US20160223554A1, “METHODS FOR DIAGNOSIS, PROGNOSIS AND METHODS OF TREATMENT” (priority 2011, published 2016).

In one experiment the test system is AML blasts. The experiment can be described thus: SCNP phospho-flow signaling nodes in AML PBMC (Example 2, Study No. 1). The conditions noted are these: for Mean Value of CRs: CR patients; for Mean Value of CRs / Mean Value of NRs: Study No. 1; for Mean Value of NRs: NR patients. Format: cell-based, human. How it is done:
Frozen cells are thawed in a 37° C. water bath and gently resuspended in the vial and transferred to the 15 mL conical tube. The 15 mL tube is centrifuged at 930 RPM (200×g) for 8 minutes at room temperature. The supernatant is aspirated and the pellet is gently resuspended in 1 mL media A. The cell suspension is filtered through a 70 um cell strainer into a new 15 mL tube. The cell strainer is rinsed with 1 mL media A and another 12 ml of media A into the 15 mL tube. The cells are mixed into an even suspension. A 20 μL aliquot is immediately removed into a 96-well plate containing 180 μL PBS+4% FBS+CD45 Alexa 700+PI to determine cell count and viability post spin. After the determination, the 15 mL tubes are centrifuged at 930 RPM (200×g) for 8 minutes at room temperature. The supernatant is aspirated and the cell pellet is gently resuspended in 4 mL PBS+4 μL Amine Aqua and incubated for 15 min in a 37° C. incubator. 10 mL RPMI+1% FBS is added to the cell suspension and the tube is inverted to mix the cells. The 15 mL tubes are centrifuged at 930 RPM (200×g) for 8 minutes at room temperature. The cells are resuspended in Media A at the desired cell concentration (1.25×10^6/mL). For samples with low numbers of cells (<18.5×10^6), the cells are resuspended in up to 15 mL media. For samples with high numbers of cells (>18.5×10^6), the volume is raised to 10 mL with media A and the desired volume is transferred to a new 15 mL tube, and the cell concentration is adjusted to 1.25×10^6 cells/ml. 1.6 mL of the above cell suspension (concentration at 1.25×10^6 cells/ml) is transferred into wells of a multi-well plate. From this plate, 80 ul is dispensed into each well of a subsequent plate. The plates are covered with a lid (Nunc) and placed in a 37° C. incubator for 2 hours to rest.
A concentration for each stimulant that is five folds more (5×) than the final concentration is prepared using Media A as diluent. 5× stimuli are arrayed into wells of a standard 96 well v-bottom plate that correspond to the wells on the plate with cells to be stimulated.
Adding the stimulant: The cell plate(s) are taken out of the incubator and placed in a 37° C. water bath next to the pipette apparatus. The cell plate is taken from the water bath and gently swirled to resuspend any settled cells. With pipettor, the stimulant is dispensed into the cell plate and vortexed at “7” for 5 seconds. The deep well plate is put back into the water bath.
The plate is covered with foil sealer and incubated in a 37° C. water bath for 10 minutes. The plate is spun for 6 minutes at 2000 rpm at room temperature. The cells are aspirated using a 96 well plate aspirator (VP Scientific). The plate is vortexed to resuspend cell pellets in the residual volume. The pellet is ensured to be dispersed before the Methanol step (see cell permeabilization) or clumping will occur.
Cell Permeabilization: Permeability agent, for example methanol, is added slowly and while the plate is vortexing. To do this, the cell plate is placed on titer plate shaker and made sure it is secure. The plate is set to shake using the highest setting. A pipetter is used to add 0.6 mls of 100% methanol to the plate wells. The plate(s) are put on ice until this step has been completed for all plates. Plates are covered with a foil seal using the plate roller to achieve a tight fit. At this stage the plates can be stored at −80° C.
Cells are thawed if frozen. Cells are pelleted at 2000 rpm 5 minutes. Supernatant is aspirated with vacuum aspirator. Plate is vortexed on a “plate vortex” for 5-10 seconds. Cells are washed with 1 mL FACS buffer. Repeat the spin, aspirate and vortex steps as above. 50 μL of FACS/stain buffer with the desired, previously optimized, antibody cocktail is added to two rows of cells at a time and agitate the plate. The plate is covered and incubated in a shaker for 30 minutes at room temperature (RT). During this incubation, the compensation plate is prepared.

Experiment [1] has as its system elderly pts with untreated AML. The settings on record: cited from earlier work.
The mark [2] stands for this setting: Fold = log2(MFI modulated) - log2(MFI unmodulated), 9 CRs, Study No.1.
Setting [3] is: Fold = log2(MFI modulated) - log2(MFI unmodulated), 25 NRs, Study No.1.
The mark [4] stands for this setting: Fold metric, Study No. 1, CRp patient included in NR group.
Setting [5] is: Total Phospho metric, Study No. 1, CRp patient included in NR group.
Where [6] appears, read: read-out p-CREB, metric TotalPhospho.
[7] abbreviates: read-out p-Erk, metric TotalPhospho.
Setting [8] is: read-out p-Plcγ2, metric TotalPhospho.
[9] abbreviates: read-out p-Stat1, metric TotalPhospho.
Setting [10] is: read-out p-Stat3, metric TotalPhospho.

Take SCF: stem cell factor, ligand of c-Kit: the “p-Akt Fold, Mean Value of CRs” value in the experiment on AML blasts (setting [2]) is given as 0.12. Also, the “p-Akt Fold, Mean Value of NRs” value with AML blasts (setting [3]) is reported as 0.57. Also, in the experiment with AML blasts (setting [4]), the “Mean Value of CRs, p-Akt” value is reported as 0.09; the “Mean Value of CRs, p-Erk” value was −0.06; the “Mean Value of NRs, p-Akt” value came to 0.56; the “Mean Value of NRs, p-Erk” value amounted to 0.11. Besides, in the experiment on AML blasts (setting [5]), the “Mean Value of CRs, p-CREB” value came out at 1.32; the “Mean Value of CRs, p-Plcγ2” value was 1.80; the “Mean Value of NRs, p-CREB” value turned out to be 1.92; the “Mean Value of NRs, p-Plcγ2” value was found to be 2.79. Also, in the experiment on AML blasts (read-out p-Akt, metric Fold), the “Mean Value of CRs” value is recorded as 0.12 and the “Mean Value of NRs” value turned out to be 0.57. Also, in the experiment on AML blasts (setting [6]), the “Mean Value of CRs” value is 1.38 and the “Mean Value of NRs” value was found to be 1.92. Moreover, in the experiment with AML blasts (read-out p-Erk, metric Fold), the “Mean Value of CRs” value is −0.05 and the “Mean Value of NRs” value is recorded as 0.11. Moreover, in the experiment with AML blasts (setting [7]), the “Mean Value of CRs” value amounted to 1.87 and the “Mean Value of NRs” value amounted to 2.28. For the same molecule, in the experiment on AML blasts (setting [8]), the “Mean Value of CRs” value is reported as 1.87 and the “Mean Value of NRs” value was 2.81.

B1: IL-27: interleukin-27, cytokine modulator (protein, UniProt Q8NEV9 29-243; Q14213 21-229, looked up)
Interleukin-27 subunit alpha: FPRPPGRPQLSLQELRREFTVSLHLARKLLSEVRGQAHRFAESHLPGVNLYLLPLGEQLPDVSLTFQAWRRLSDPERLCFISTTLQPFHALLGGLGTQGRWTNMERMQLWAMRLDLRDLQRHLRFQVLAAGFNLPEEEEEEEEEEEEERKGLLPGALGSALQGPAQVSWPQLLSTYRLLHSLELVLSRAVRELLLLSKAGHSVWPLGFPTLSPQP
Interleukin-27 subunit beta: RKGPPAALTLPRVQCRASRYPIAVDCSWTLPPAPNSTSPVSFIATYRLGMAARGHSWPCLQQTPTSTSCTITDVQLFSMAPYVLNVTAVHPWGSSSSFVPFITEHIIKPDPPEGVRLSPLAERQLQVQWEPPGSWPFPEIFSLKYWIRYKRQGAARFHRVGPIEATSFILRAVRPRARYYVQVAAQDLTDYGELSDWSLPATATMSLGK
In the case of B1, in the experiment with AML blasts (setting [5]), the “Mean Value of CRs, p-CREB” value is 1.25; the “Mean Value of CRs, p-Stat1” value is on record as 0.39; the “Mean Value of CRs, p-Stat3” value was found to be 1.01; the “Mean Value of NRs, p-CREB” value was 2.36. In addition, in the experiment with AML blasts (setting [5]), the “Mean Value of NRs, p-Stat1” value is listed as 0.81 and the “Mean Value of NRs, p-Stat3” value amounted to 1.85. Besides, in the experiment with AML blasts (setting [6]), the “Mean Value of CRs” value is reported as 1.40 and the “Mean Value of NRs” value amounted to 2.35. In the experiment with AML blasts (setting [9]), the “Mean Value of CRs” value worked out at 0.41 and the “Mean Value of NRs” value came to 0.82. For the same molecule, in the experiment on AML blasts (setting [10]), the “Mean Value of CRs” value amounted to 1.07 and the “Mean Value of NRs” value worked out at 1.86.

B2: FLT3L: fms-like tyrosine kinase receptor-3 ligand (protein, UniProt P49771 27-235, looked up)
Fms-related tyrosine kinase 3 …: TQDCSFQHSPISSDFAVKIRELSDYLLQDYPVTVASNLQDEELCGGLWRLVLAQRWMERLKTVAGSKMQGLLERVNTEIHFVTKCAFQPPPSCLRFVQTNISRLLQETSEQLVALKPWITRQNFSRCLELQCQPDSSTLPPPWSPRPLEATAPTAPQPPLLLLLLLPVGLLLLAAAWCLHWQRTRRRTPRPGEQVPPVPSPQDLLLVEH
As to B2, in the experiment on AML blasts (setting [2]), the “p-Akt Fold, Mean Value of CRs” value is on record as 0.18 and the “p-S6 Fold, Mean Value of CRs” value was found to be 0.28. Besides, in the experiment on AML blasts (setting [3]), the “p-Akt Fold, Mean Value of NRs” value came to 0.64 and the “p-S6 Fold, Mean Value of NRs” value was determined as 0.81. For the same molecule, in the experiment on AML blasts (setting [4]), the “Mean Value of CRs, p-Akt” value was found to be 0.10; the “Mean Value of CRs, p-CREB” value worked out at 0.07; the “Mean Value of CRs, p-Erk” value stood at 0.08; the “Mean Value of CRs, p-Plcγ2” value is on record as −0.14. In the experiment on AML blasts (setting [4]), the “Mean Value of CRs, p-S6” value amounted to 0.14; the “Mean Value of NRs, p-Akt” value is listed as 0.65; the “Mean Value of NRs, p-CREB” value is reported as 0.36; the “Mean Value of NRs, p-Erk” value was determined as 0.33. For the same molecule, in the experiment on AML blasts (setting [4]), the “Mean Value of NRs, p-Plcγ2” value is given as −0.08 and the “Mean Value of NRs, p-S6” value is given as 0.83. In the experiment with AML blasts (setting [5]), the “Mean Value of CRs, p-CREB” value is listed as 1.39; the “Mean Value of CRs, p-Plcγ2” value turned out to be 1.81; the “Mean Value of NRs, p-CREB” value amounted to 2.13; the “Mean Value of NRs, p-Plcγ2” value was 2.78. Besides, in the experiment with AML blasts (read-out p-Akt, metric Fold), the “Mean Value of CRs” value is on record as 0.18 and the “Mean Value of NRs” value worked out at 0.64. For the same molecule, in the experiment on AML blasts (setting [6]), the “Mean Value of CRs” value turned out to be 1.50 and the “Mean Value of NRs” value is on record as 2.12. In the experiment on AML blasts (setting [8]), the “Mean Value of CRs” value is recorded as 1.88 and the “Mean Value of NRs” value was found to be 2.80. In addition, in the experiment with AML blasts (read-out p-S6, metric Fold), the “Mean Value of CRs” value was 0.28 and the “Mean Value of NRs” value stood at 0.81.

B3: G-CSF: granulocyte colony-stimulating factor (protein, UniProt P09919 31-207, looked up)
Granulocyte …: TPLGPASSLPQSFLLKCLEQVRKIQGDGAALQEKLVSECATYKLCHPEELVLLGHSLGIPWAPLSSCPSQALQLAGCLSQLHSGLFLYQGLLQALEGISPELGPTLDTLQLDVADFATTIWQQMEELGMAPALQPTQGAMPAFASAFQRRAGGVLVASHLQSFLEVSYRVLRHLAQP
B3: in experiment [1] (SWOG-9031, by arm (NS)), the “Med RFS” value is listed as 9 mo; G-CSF: 8. In addition, the “CR Rates” value in experiment [1] (SWOG-9031, by arm, added to Ara-C/DNR induction, p = 0.89) is “G-CSF: 41%”. For the same molecule, the “Med. OS” value in experiment [1] (SWOG-9031, by arm, p = .71) was “G-CSF: 6 mos”. Moreover, the “p-Stat5 Fold, Mean Value of CRs” value in the experiment with AML blasts (setting [2]) stood at 0.47. In addition, the “p-Stat5 Fold, Mean Value of NRs” value with AML blasts (setting [3]) was 1.13. Also, in the experiment with AML blasts (setting [4]), the “Mean Value of CRs, p-Stat3” value is listed as 0.60; the “Mean Value of CRs, p-Stat5” value is 0.33; the “Mean Value of NRs, p-Stat3” value worked out at 1.52; the “Mean Value of NRs, p-Stat5” value came to 1.15. For the same molecule, in the experiment with AML blasts (setting [5]), the “Mean Value of CRs, p-Stat3” value was 1.40 and the “Mean Value of NRs, p-Stat3” value came out at 2.74. Besides, in the experiment on AML blasts (setting [10]), the “Mean Value of CRs” value was 1.66 and the “Mean Value of NRs” value worked out at 2.70. Further, in the experiment on AML blasts (read-out p-Stat5, metric Fold), the “Mean Value of CRs” value was 0.47 and the “Mean Value of NRs” value was 1.13.
